Measured values as given in the supplement of paper PMC10567573.

B1: SOAT1 (parent)
chain: PSNGRIDIKQLIAKKIKLTAEAEE

Variants of: B1
Assay: protein stability index of a GFP-peptide fusion (GPS, HEK-293T) (PSI 1-6); higher = more stable
Settings: c terminus: a fixed tail appended
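Also: lentivirally expressed fusions sorted by FACS into six bins by GFP to DsRed ratio, PSI derived from sequencing read proportions per bin multiplied by bin number.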

Going from Q10A to Q10L, the protein stability index falls from 3.35 to 3.18.

Going from Q10F to Q10R, the protein stability index rises from 2.65 to 2.7.

First: Q10G
Second: Q10K
The protein stability index of the first is higher: 3.59 for the first, 3.3 for the second.

First: Q10Y
Second: Q10V
The protein stability index of the first is higher: 2.43 for the first, 2.33 for the second.

Going from E21I to E21K, the protein stability index falls from 3.19 to 2.51.

First: E21F
Second: E21L
The protein stability index of the first is lower: 1.97 for the first, 2.96 for the second.

Going from E21H to E21S, the protein stability index falls from 3.13 to 3.02.

First: E21R
Second: E21G
The protein stability index of the first is higher: 2.95 for the first, 2.63 for the second.

First: L11V
Second: L11M
The protein stability index of the first is higher: 3.57 for the first, 3.22 for the second.

Going from L11G to L11I, the protein stability index falls from 3.75 to 3.17.

Compared with L11D, L11S is lower in protein stability index: 4.04 for the first, 3.75 for the second.

Compared with L11Q, L11W is higher in protein stability index: 3.58 for the first, 3.67 for the second.

Compared with L11F, R5W is higher in protein stability index: 3.38 for the first, 3.48 for the second.

Going from R5L to R5F, the protein stability index falls from 4.05 to 3.49.

Going from R5G to R5C, the protein stability index falls from 4.04 to 3.66.

Going from A20C to A20Y, the protein stability index falls from 3.44 to 2.8.

Going from A20R to A20D, the protein stability index rises from 3.07 to 3.16.

Compared with A20Q, A20H is higher in protein stability index: 3.44 for the first, 3.66 for the second.

Compared with K9P, K9N is lower in protein stability index: 3.69 for the first, 3.66 for the second.

Going from K9C to K9I, the protein stability index falls from 3.25 to 2.29.

Going from K9W to K9M, the protein stability index rises from 2.02 to 2.99.

Compared with K9Q, S2A is lower in protein stability index: 3.47 for the first, 2.88 for the second.

First: S2I
Second: S2V
The protein stability index of the first is higher: 3.33 for the first, 2.96 for the second.

First: S2R
Second: S2P
The protein stability index of the first is lower: 3.08 for the first, 3.35 for the second.

First: S2Q
Second: S2N
The protein stability index of the first is higher: 3.63 for the first, 3.61 for the second.

Compared with S2H, S2T is higher in protein stability index: 3.01 for the first, 3.79 for the second.

Going from K15S to K15A, the protein stability index falls from 3.59 to 3.19.

First: K15V
Second: K15C
The protein stability index of the first is lower: 2.42 for the first, 2.5 for the second.

Compared with K15H, K15P is higher in protein stability index: 3.17 for the first, 4.22 for the second.

First: K15F
Second: K15E
The protein stability index of the first is lower: 2.47 for the first, 4.52 for the second.

First: K15G
Second: K15M
The protein stability index of the first is higher: 4.05 for the first, 3.11 for the second.

Compared with I6W, I6T is higher in protein stability index: 2.91 for the first, 3.58 for the second.

Compared with I6R, I6S is higher in protein stability index: 3.4 for the first, 3.46 for the second.

First: I6G
Second: T19R
The protein stability index of the first is higher: 4.1 for the first, 2.73 for the second.

Going from T19K to T19A, the protein stability index rises from 2.52 to 3.48.

Compared with T19C, T19L is lower in protein stability index: 3.06 for the first, 2.15 for the second.

Going from T19E to T19V, the protein stability index falls from 3.88 to 2.75.

First: D7F
Second: D7A
The protein stability index of the first is lower: 2.83 for the first, 2.96 for the second.

Going from E24Y to E24I, the protein stability index falls from 2.68 to 2.27.

Compared with E24A, E24N is higher in protein stability index: 2.78 for the first, 3.07 for the second.

Compared with E24L, E24S is lower in protein stability index: 3.11 for the first, 2.73 for the second.

Compared with E24T, I16M is higher in protein stability index: 3.44 for the first, 3.51 for the second.

Compared with I16W, I16K is higher in protein stability index: 3.18 for the first, 4.01 for the second.

First: I16Y
Second: I16C
The protein stability index of the first is lower: 3.16 for the first, 3.31 for the second.

Going from I16T to L18F, the protein stability index falls from 4.1 to 3.38.

Compared with L18Q, L18W is lower in protein stability index: 3.89 for the first, 2.9 for the second.

Compared with L18I, L18H is lower in protein stability index: 3.72 for the first, 3.69 for the second.

First: L18C
Second: L18S
The protein stability index of the first is higher: 3.67 for the first, 3.59 for the second.

First: L18K
Second: L18T
The protein stability index of the first is lower: 3.23 for the first, 3.38 for the second.

Going from L18D to N3K, the protein stability index falls from 4.13 to 3.96.

Compared with N3E, N3R is lower in protein stability index: 4.27 for the first, 3.93 for the second.

Compared with N3H, N3M is lower in protein stability index: 4.32 for the first, 3.66 for the second.

Going from N3P to N3T, the protein stability index rises from 4.11 to 4.2.

Compared with N3Y, N3G is higher in protein stability index: 3.42 for the first, 3.88 for the second.

Compared with P1N, P1D is higher in protein stability index: 3.14 for the first, 3.27 for the second.

Compared with P1T, P1V is lower in protein stability index: 3.64 for the first, 2.98 for the second.

Going from P1I to A13F, the protein stability index falls from 3.57 to 2.94.

Going from A13G to A13S, the protein stability index falls from 3.54 to 3.36.

First: A13C
Second: A22P
The protein stability index of the first is lower: 2.82 for the first, 3.18 for the second.

First: A22C
Second: A22M
The protein stability index of the first is lower: 2.63 for the first, 3 for the second.

First: A22W
Second: A22L
The protein stability index of the first is lower: 2.48 for the first, 3.2 for the second.

Going from A22R to A22S, the protein stability index rises from 2.79 to 3.26.

Compared with K17M, K17D is higher in protein stability index: 3.1 for the first, 4.01 for the second.

Compared with K17W, K17P is higher in protein stability index: 2.53 for the first, 3.84 for the second.

First: K17E
Second: K17N
The protein stability index of the first is higher: 3.62 for the first, 3.61 for the second.

Going from K17G to K17R, the protein stability index falls from 3.55 to 2.99.

Compared with K17S, K17F is lower in protein stability index: 3.59 for the first, 3.15 for the second.

Going from E23T to E23P, the protein stability index falls from 3.13 to 2.88.

Compared with E23N, E23D is higher in protein stability index: 2.93 for the first, 3.3 for the second.

First: I8G
Second: I8E
The protein stability index of the first is lower: 3.89 for the first, 4.62 for the second.

First: I8T
Second: I8H
The protein stability index of the first is higher: 4.48 for the first, 3.12 for the second.

Going from I8L to G4F, the protein stability index falls from 3.62 to 3.56.

First: G4D
Second: G4N
The protein stability index of the first is higher: 4.92 for the first, 3.76 for the second.

Going from G4Q to G4W, the protein stability index falls from 3.57 to 2.85.

Compared with G4Y, G4K is higher in protein stability index: 2.91 for the first, 3.77 for the second.

Compared with G4E, G4A is lower in protein stability index: 4.39 for the first, 3.77 for the second.

Compared with K14L, K14F is higher in protein stability index: 2.24 for the first, 2.63 for the second.

Going from K14Y to K14M, the protein stability index rises from 2.62 to 2.96.

Going from K14Q to K14N, the protein stability index rises from 3.22 to 3.59.

First: K14S
Second: K14T
The protein stability index of the first is higher: 3.84 for the first, 3.34 for the second.

Compared with K14I, I12S is higher in protein stability index: 2.71 for the first, 3.82 for the second.

Going from I12R to I12T, the protein stability index rises from 3.85 to 3.89.

First: I12N
Second: I12K
The protein stability index of the first is higher: 3.99 for the first, 3.83 for the second.

I12P gave a protein stability index of 3.7.
